Values quoted from earlier work in article PMC2805756.

Biological target: His107 (UniProt position 107, SSGMIHLLVQV)
Experiment: kinetics
Settings: free wild-type enzyme (thiolate-imidazolium ion pair)

For “Arylamine N-acetyltransferase 2 (hamster NAT2), wild type (Mesocricetus auratus (the article says only 'hamster'))”, the pKa is listed as over 9.5.
